US8835119B2, “Lectin pathway deficiency assay” (Euro Diagnostica AB, priority 2002, dated 2014)

Experiments:
[1] = test system: alternative pathway (AP) of complement; settings: NHS in calcium-free buffer (GVB/MgEGTA)
Experimental: As a ligand for AP activation, LPS was coated at 10 μg/ml. LPS from Salmonella typhosa was obtained from Sigma (L-6386), dissolved in PBS at 1.6 mg/ml and stored at −20° C. Plates were blocked by using 1% BSA in PBS. Serum samples were diluted in GVB/MgEGTA (VBS containing 10 mM EGTA, 5 mM MgCl2, 0.05% Tween-20, and 0.1% gelatin; pH 7.5) and incubated in the plate for 1 hour at 37° C. Complement binding was assessed by using dig-conjugated mAb directed against C4 and C3 followed by the detection of mAb binding by using HRP-conjugated sheep anti-dig antibodies.
In order to enable the detection of all complement activation pathways in one assay system, the activation of the alternative pathway in an ELISA system was also studied. […] Therefore, a calcium-free buffer was used, thus excluding involvement of the CP and the LP.

C1q [2] = target: T1, C1q (Homo sapiens, UniProt P02745+P02746+P02747); settings: cited from earlier work
[3] = test system: classical complement pathway; settings: several in vitro assays; cited from earlier work
C1q [4] = target: T1, C1q; design: Human C1q was isolated from human donor plasma exactly as described previously; from tissue; host or cells: human donor plasma; settings: cited from earlier work
C1q [5] = target: T1, C1q; design: Human C1q was isolated from human donor plasma exactly as described previously; from tissue; host or cells: human donor plasma; settings: cited from earlier work; remark: listed apart in the source
[6] = test system: classical pathway (CP) of complement; experiment: Classical pathway ELISA: complement activation by NHS on immobilized IgM; assay type: biochemical, human; settings: FIG. 3C; C1q-depleted NHS 1/400, purified C1q 0.5 μg/ml
Experimental: Anti-C1q antibodies were tested for their ability to inhibit the CP of complement by using immobilized IgM as a specific activator of the CP. […] These antibodies were tested for their effect on complement activation induced by immobilized mannan.
As a ligand for CP activation, human IgM was coated at 2 μg/ml. After blocking of residual binding sites, serum samples, diluted in GVB++, were added to the plate and incubated for 1 hour at 37° C.
The complement activation cascade was further studied by using mAb to detect binding of specific complement components upon their activation via the CP and the LP, respectively. […] Therefore, addition of mAb 2004 to serum allows the specific detection of LP activation by using mannan as ligand without any interference of the CP.

[7] = test system: lectin pathway (LP) of complement; experiment: Lectin pathway ELISA: complement activation by NHS on immobilized mannan; assay type: biochemical, human; settings: FIG. 3C; C1q-depleted NHS 1/400, purified C1q 0.5 μg/ml
Experimental: Functional activity of the lectin pathway was assessed with ELISA by using immobilized mannan as a ligand. Mannan was obtained from Sigma from Saccharomyces cerevisiae; M7504), dissolved in PBS (10 mg/ml) and stored at −20° C. Nunc Maxisorb plates (Nunc, Roskilde, Denmark) were coated with mannan (100 μg/ml) in coating buffer (100 mM Na2CO3/NaHCO3, pH 9.6) for 16 hours at room temperature or for 2 hours at 37° C. After each step, the plates were washed three times with PBS containing 0.05% Tween 20. Residual binding sites were blocked by incubation for one hour at 37° C. with PBS containing 1% BSA. […] This mixture was pre-incubated for 15 minutes on ice, before addition to the plates. […] Complement binding was detected by using mouse mAb conjugated to digoxygenin (dig) by using digoxygenin-3-O-methylcarbonyl-ε-aminocaproic acid-N-hydroxysuccinimide ester (from Boehringer Mannheim, Mannheim, Germany) according to instructions provided by the manufacturer. […] Binding of mAb was detected by using dig-conjugated sheep anti-mouse antibodies (Fab fragments) followed by HRP-conjugated sheep anti-dig antibodies (Fab fragments, both from Boehringer Mannheim). […] Enzyme activity of HRP was detected following incubation at room temperature for 30-60 min with 2,2′-azino-bis(3-ethylbenzthiazoline-6-sulfonic acid) (from Sigma; 2.5 mg/ml in 0.1 M citrate/Na2HPO4 buffer, pH 4.2) in the presence of 0.01% H2O2. […]

C1q [8] = target: T1, C1q; experiment: C1q-dependent hemolytic assay; assay type: cell-based; design: Human C1q was isolated from human donor plasma exactly as described previously; from tissue; host or cells: human donor plasma
Experimental: (Roos A., et al., J. Immunol. 167, 7052-7059, 2001).
For the preparation of C1q-depleted serum, undiluted normal human EDTA plasma (obtained from a donor with the MBL/AA genotype) was applied on column consisting of Biogel A5 (from Biorad) coupled to rabbit IgG anti-human C1q. The column was washed by using Veronal-buffered saline (VBS; 1.8 mM Na-5,5-diethylbarbital, 0.2 mM 5,5-diethylbarbituric acid, 145 mM NaCl) containing 10 mM EDTA. Fractions were tested in a C1q-dependent hemolytic assay in the absence or presence of purified C1q. […] After recalcification, C1q-depleted serum was stored at −80° C.

T1 sequence (P02745 23-245): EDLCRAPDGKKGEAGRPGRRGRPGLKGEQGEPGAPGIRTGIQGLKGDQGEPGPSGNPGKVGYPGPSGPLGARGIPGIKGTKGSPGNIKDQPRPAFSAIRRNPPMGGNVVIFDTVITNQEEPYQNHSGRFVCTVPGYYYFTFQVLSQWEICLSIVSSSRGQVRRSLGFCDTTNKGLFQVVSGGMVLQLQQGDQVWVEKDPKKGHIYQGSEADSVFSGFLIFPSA
T1 sequence (P02746 28-253): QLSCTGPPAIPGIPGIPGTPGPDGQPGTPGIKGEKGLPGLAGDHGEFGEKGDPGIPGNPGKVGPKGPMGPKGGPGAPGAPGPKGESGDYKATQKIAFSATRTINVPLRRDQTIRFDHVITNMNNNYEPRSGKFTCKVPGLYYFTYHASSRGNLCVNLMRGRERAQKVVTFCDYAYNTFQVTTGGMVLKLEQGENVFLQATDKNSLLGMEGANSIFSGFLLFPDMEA
T1 sequence (P02747 29-245): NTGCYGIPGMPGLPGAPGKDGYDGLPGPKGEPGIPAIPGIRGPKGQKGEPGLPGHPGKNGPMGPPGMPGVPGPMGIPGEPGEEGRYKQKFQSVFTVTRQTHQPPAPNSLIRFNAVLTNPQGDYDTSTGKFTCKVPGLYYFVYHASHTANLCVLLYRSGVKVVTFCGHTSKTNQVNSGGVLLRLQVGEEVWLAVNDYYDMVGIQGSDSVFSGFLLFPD

O=C(O)CN(CCN(CC(=O)O)CC(=O)O)CC(=O)O [EDTA]
Detection of C3 when present in the complement source [1]: reduced until background levels

AEAKAKA
Mechanism of C1 inhibition (C1q [2]): Inhibits C1q ligand binding | Inhibition of activation of the classical complement pathway [3]: able to inhibit

C1 inhibitor: plasma serine protease inhibitor
Mechanism of C1 inhibition (C1q [2]): Inhibits C1r and C1s activity

CEGPFGPRHDLTFCW [Peptide 2J]
Mechanism of C1 inhibition (C1q [2]): Binds C1q head, inhibits | Inhibition of C1q-dependent hemolysis / C1q hemolytic function (C1q [4]): strong inhibitor | Inhibition of binding of C1q to IgG (C1q [5]): inhibits

KDIRCKDD
Mechanism of C1 inhibition (C1q [2]): Inhibits C1q ligand binding

LEQGENVFLQATLL [Peptide CBP2]
Mechanism of C1 inhibition (C1q [2]): Acts as a competitor for C1q

Surfactant protein A: collectin present in the lung
Mechanism of C1 inhibition (C1q [2]): Inhibits C1q ligand binding

VQVHNAKTKPR
Inhibition of activation of the classical complement pathway [3]: able to inhibit

human neutrophil peptide-1 [HNP-1]
Mechanism of C1 inhibition (C1q [2]): Binds C1q tail and inhibits

purified C1q: human C1q isolated from human donor plasma
C4 activation by IgM after reconstitution of C1q-depleted serum [6]: complete restoration | C4 activation by mannan after addition to C1q-depleted serum [7]: slightly inhibited | Restoration of lysis of antibody-coated erythrocytes induced by C1q-depleted human serum (C1q [8]): completely restore

B1: gC1qR: globular C1q receptor, binds specifically to the globular head of C1q (protein, UniProt Q07021 74-282, looked up)
Complement component 1 Q …: LHTDGDKAFVDFLSDEIKEERKIQKHKTLPKMSGGWELELNGTEAKLVRKVAGEKITVTFNINNSIPPTFDGEEEPSQGQKVEEQEPELTSTPNFVVEVIKNDDGKKALVLDCHYPEDEVGQEDEAESDIFSIREVSFQSTGESEWKDTNYTLNTDSLDWALYDHLMDFLADRGVDNTFADELVELSTALEHQEYITFLEDLKSFVKSQ
Mechanism of C1 inhibition (C1q [2]): Binds C1q head

B2: Calreticulin (protein, UniProt P27797 18-417, looked up)
Calreticulin: EPAVYFKEQFLDGDGWTSRWIESKHKSDFGKFVLSSGKFYGDEEKDKGLQTSQDARFYALSASFEPFSNKGQTLVVQFTVKHEQNIDCGGGYVKLFPNSLDQTDMHGDSEYNIMFGPDICGPGTKKVHVIFNYKGKNVLINKDIRCKDDEFTHLYTLIVRPDNTYEVKIDNSQVESGSLEDDWDFLPPKKIKDPDASKPEDWDERAKIDDPTDSKPEDWDKPEHIPDPDAKKPEDWDEEMDGEWEPPVIQNPEYKGEWKPRQIDNPDYKGTWIHPEIDNPEYSPDPSIYAYDNFGVLGLDLWQVKSGTIFDNFLITNDEAYAEEFGNETWGVTKAAEKQMKDKQDEEQRLKEEEEDKKRKEEEEAEDKEDDEDKDEDEEDEEDKEEDEEEDVPGQAKDEL
Inhibition of C1q-dependent hemolysis / C1q hemolytic function (C1q [4]): inhibit

B3: Decorin: dermatan sulfate proteoglycan, a constituent of the extracellular matrix (protein, UniProt P07585 31-359, looked up)
Decorin: DEASGIGPEVPDDRDFEPSLGPVCPFRCQCHLRVVQCSDLGLDKVPKDLPPDTTLLDLQNNKITEIKDGDFKNLKNLHALILVNNKISKVSPGAFTPLVKLERLYLSKNQLKELPEKMPKTLQELRAHENEITKVRKVTFNGLNQMIVIELGTNPLKSSGIENGAFQGMKKLSYIRIADTNITSIPQGLPPSLTELHLDGNKISRVDAASLKGLNNLAKLGLSFNSISAVDNGSLANTPHLRELHLDNNKLTRVPGGLAEHKYIQVVYLHNNNISVVGSSDFCPPGHNTKKASYSGVSLFSNPVQYWEIQPSTFRCVYVRSAIQLGNYK
Mechanism of C1 inhibition (C1q [2]): Binds to C1q head
